From paper PMC6957267 (Molecular cancer therapeutics, 2012)

Molecular target: Mature human IGF-II (insulin-like growth factor II) (human)
Assay: ELISA

| EC50 [nM] | Binder |
| --- | --- |
| 5 | Fab m610.27 (Fab, V domains shown) VH: QVQLVQSGAEVKKPGASVKVSCKASGYTFTSYYMHWVRQAPGQGLEWMGIINPSGGSTSYAQKFQGRVTMTRDTSTSTVYMELSRLRSDDTAVYYCARDVQWLAYGMDVWGQGTTVTVSS VL: DIQMTQSPSSLSASVGDRVTITCRASQSISSYLNWYQQKPGRAPDLLINAASSLQSGVPSRFSGSGSGTDFTLTISSLQPEDFATYFCQQSYSLPFTFGGGTKVEIK |
| 20 | m610 (human mAb to IGF-II), Fab (Fab, V domains shown) VH: QVQLVQSGAEVKKPGASVKVSCKASGYTFTSYYMHWVRQAPGQGLEWMGIINPSGGSTSYAQKFQGRVTMTRDTSTSTVYMELSRLRSDDTAVYYCARDVQWLAYGMDVWGQGTTVTVSS VL: not shown |
